Experimental data from patent US20070178098A1.

Assays:
[1] = target: Fc-IL6Ralpha-IL6 (human IL-6Ralpha and IL-6; mouse Fc); assay: cell-based or functional assay
human IL-6 (human) = human IL-6 (human) (UniProt P05231); assay: cell-based or functional assay
Chain of human IL-6 (human) (P05231 30-212 limits assumed): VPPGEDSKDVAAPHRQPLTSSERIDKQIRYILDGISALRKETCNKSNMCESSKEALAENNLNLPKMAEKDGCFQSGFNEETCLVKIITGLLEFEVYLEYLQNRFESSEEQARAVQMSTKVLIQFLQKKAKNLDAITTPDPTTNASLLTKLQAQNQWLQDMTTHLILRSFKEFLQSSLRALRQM

Chain of Fc-IL6Ralpha-IL6 (human IL-6Ralpha and IL-6; mouse Fc) (chain, as listed by the source limits assumed): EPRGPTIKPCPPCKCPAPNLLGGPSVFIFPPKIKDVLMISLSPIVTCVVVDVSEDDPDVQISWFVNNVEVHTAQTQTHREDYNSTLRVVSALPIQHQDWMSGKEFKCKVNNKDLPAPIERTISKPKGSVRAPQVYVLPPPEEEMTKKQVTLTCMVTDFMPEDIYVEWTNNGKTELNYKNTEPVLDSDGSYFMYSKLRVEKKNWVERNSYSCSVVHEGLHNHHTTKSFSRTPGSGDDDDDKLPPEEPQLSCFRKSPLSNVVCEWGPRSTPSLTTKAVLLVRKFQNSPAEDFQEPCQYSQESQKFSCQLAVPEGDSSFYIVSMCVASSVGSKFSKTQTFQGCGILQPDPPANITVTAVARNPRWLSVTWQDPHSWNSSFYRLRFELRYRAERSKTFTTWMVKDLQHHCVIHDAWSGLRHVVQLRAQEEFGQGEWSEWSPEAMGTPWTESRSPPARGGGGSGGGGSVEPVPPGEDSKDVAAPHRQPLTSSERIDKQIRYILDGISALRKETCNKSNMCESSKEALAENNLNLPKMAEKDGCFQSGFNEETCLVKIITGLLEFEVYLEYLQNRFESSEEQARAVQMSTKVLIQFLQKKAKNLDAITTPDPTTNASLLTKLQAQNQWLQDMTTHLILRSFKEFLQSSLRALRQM

B1: CNTO-328 (antibody, INN chains, looked up, V domains shown)
VH: EVQLVESGGKLLKPGGSLKLSCAASGFTFSSFAMSWFRQSPEKRLEWVAEISSGGSYTYYPDTVTGRFTISRDNAKNTLYLEMSSLRSEDTAMYYCARGLWGYYALDYWGQGTSVTVSS
VL: QIVLIQSPAIMSASPGEKVTMTCSASSSVSYMYWYQQKPGSSPRLLIYDTSNLASGVPVRFSGSGSGTSYSLTISRMEAEDAATYYCQQWSGYPYTFGGGTKLEIK
[1]
  8 Hours % Inhibition of haptoglobin secretion in mice given Fc-IL6Rα-IL6: 12%
  24 hours % Inhibition of haptoglobin secretion in mice given Fc-IL6Rα-IL6: -3%
  Haptoglobin Inhibition IC50 (HepG2 cells stimulated with IL-6Rα-IL-6): > 0.333 µg/mL
  LP-1 Proliferation IC50 (stimulated with Fc-IL6Ralpha-IL6): 1.61 µg/mL
Human IL-6 (human)
  Haptoglobin Inhibition IC50 (HepG2 cells stimulated with IL-6): 0.00519 µg/mL
  LP-1 Proliferation IC50 (stimulated with IL-6): 0.0101 µg/mL
